Laboratory results: US20210388105A1 (ELPISCIENCE SUZHOU BIOPHARMA, published 2021)

What was measured:
[1] = biological target: T1, human CD39 (full length, on cells) (human, UniProt P49961 1-510); test: FACS, SK-MEL-28 cells
T1 construct: Recombinant on CHOK1-hCD39 cells or natural on SK-MEL-28, SK-MEL-5 and MOLP-8 cells; the cell line is named under assay; also called hCD39; ENTPD1
T1 sequence: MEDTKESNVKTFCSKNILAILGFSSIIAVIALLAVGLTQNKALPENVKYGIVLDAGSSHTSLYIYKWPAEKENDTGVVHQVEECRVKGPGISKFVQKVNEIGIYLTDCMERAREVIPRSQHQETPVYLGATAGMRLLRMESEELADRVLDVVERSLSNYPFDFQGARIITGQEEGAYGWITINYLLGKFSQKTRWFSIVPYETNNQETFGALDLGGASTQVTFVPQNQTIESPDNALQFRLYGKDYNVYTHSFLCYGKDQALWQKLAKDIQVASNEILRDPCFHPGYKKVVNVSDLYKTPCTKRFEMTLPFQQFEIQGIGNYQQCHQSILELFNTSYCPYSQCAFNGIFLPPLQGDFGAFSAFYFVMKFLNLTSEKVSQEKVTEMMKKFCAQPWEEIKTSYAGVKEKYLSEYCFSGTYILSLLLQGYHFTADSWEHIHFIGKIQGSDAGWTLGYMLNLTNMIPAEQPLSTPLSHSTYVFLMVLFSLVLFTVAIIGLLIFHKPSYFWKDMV
Method: Similarly, human CD39 expressing cells SK-MEL-5, SK-MEL-28 or MOLP-8, were incubated with a gradient concentration of anti-CD39 antibodies for 30 minutes at 4° C. Cells were washed 3 times using FACS buffer and next incubated with fluorescence labelled secondary antibody (goat-anti-mouse IgG or goat anti-human IgG) for 30 minutes at 4° C. Cells were washed 3 times and then re-suspended in FACS buffer and analyzed by flow cytometry analysis on BD Celesta. Data plotted and analyzed using GraphPad Prism 8.02.
Binding affinity of the humanized antibodies hu23.H5L5 and hu14.H1L1 were tested on different cells by FACS following the similar method as described in Example 3.2.
Reference antibodies T895 and 1394 were tested in parallel as control antibodies. As shown in FIG. 12 and summarized in Table 23, both antibodies hu23.H5L5 and hu14.H1L1 bound to human and cynomolgus CD39 expressing cells in a dose-dependent manner and with similar affinity by EC₅₀ at a sub-nanomolar or nanomolar level. Neither of them recognized mouse CD39 in the FACS study. Maximum signal (mean fluorescence intensity, MFI) differed between cells for each antibody may result from their different expression level.

[2] = biological target: T2, 6×His tagged human CD39 (human, UniProt P49961 38-478); test: Biacore SPR, antibody captured on CM5 chip, His-tagged CD39 as analyte
T2 construct: Analyte in the Biacore assay
T2 sequence: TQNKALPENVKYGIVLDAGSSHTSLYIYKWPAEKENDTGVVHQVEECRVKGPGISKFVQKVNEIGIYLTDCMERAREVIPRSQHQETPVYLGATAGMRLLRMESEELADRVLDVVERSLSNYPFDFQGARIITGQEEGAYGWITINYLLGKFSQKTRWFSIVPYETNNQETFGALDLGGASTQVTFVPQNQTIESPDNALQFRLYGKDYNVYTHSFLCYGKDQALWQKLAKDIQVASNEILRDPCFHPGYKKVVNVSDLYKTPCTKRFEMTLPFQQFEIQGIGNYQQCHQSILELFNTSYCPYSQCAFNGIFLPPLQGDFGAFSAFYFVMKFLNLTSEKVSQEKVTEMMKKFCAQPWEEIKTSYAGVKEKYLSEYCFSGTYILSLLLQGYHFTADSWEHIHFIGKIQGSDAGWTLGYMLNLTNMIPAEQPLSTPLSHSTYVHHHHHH
Method: In particular, humanized antibodies hu23.H5L5, hu23.201, hu14.H1L1 and reference antibodies 1394 and T895 were characterized for binding affinity against human CD39 using Biacore (GE). Briefly the antibodies to be tested were captured to CM5 chip (GE) using Human Antibody Capture Kit (GE). The antigen of 6×His tagged human CD39 was serially diluted for multiple doses and injected at 30 μl/min for 180s. Buffer flow was maintained for dissociation of 400s. 3 M MgCl2 was used for chip regeneration. The association and dissociation curves were fit with 1:1 binding model, and the Ka/Kd/KD values for each antibody were calculated.

[3] = biological target: T1, human CD39 (full length, on cells); test: FACS competition on CHOK1-hCD39; competitor mAb14-Alexa488
Method: (§1) Anti-CD39 antibodies were labeled using Alex488 labeling kit and were diluted in a series of concentrations, before mixing with CHOK1-hCD39 cells to test binding EC₅₀using FACS. The non-labeled antibodies were tested for their blocking efficacy to the labelled ones. Briefly, mononuclear CHOK1-hCD39 cells were prepared to 2×10⁶/ml and plated into 96 well at 50 μl/well, then mixed with antibodies gradients to final volume at 100 μl, and then equal volume of Alex488 label antibodies were added at two folds EC80 concentration. 96 well plates were incubated at 4° C. for 1 hour, and spun down and washed 3 times with 200 μl FACS buffer. The FACS analysis was performed on FACScelesta machine and data was analyzed by Flowjo software. The blocking percentages were calculated and those having above 80% competition rate were allocated into one epitope group, compared with the non-competing well (Alex488 labeled antibody only).
(§2) Based on the competition results, the 4 anti-CD39 hybridoma antibodies (mAb14, mAb19, mAb21, mAb23) can be grouped into 4 different epitope groups, as shown in Table 11.

[4] = biological target: T1, human CD39 (full length, on cells); test: FACS competition on CHOK1-hCD39; competitor mAb19-Alexa488
Method: as §1, §2

B1: Antibody T895 (antibody, V domains shown)
VH: EVQLQQSGPELVKPGASVKMSCKASGYTFTDYNMHWVKQSHGRTLEWIGYIVPLNGGSTFNQKFKGRATLTVNTSSRTAYMELRSLTSEDSAAYYCARGGTRFAYWGQGTLVTVSA
VL: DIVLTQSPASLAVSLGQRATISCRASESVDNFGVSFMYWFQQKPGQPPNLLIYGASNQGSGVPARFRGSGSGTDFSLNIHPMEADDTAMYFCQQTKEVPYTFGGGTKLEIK
notes: also called 31895
[1]
  EC50: 0.36 nM
[2]
  Kd: 1040 nM
  koff: 0.139 s⁻¹
  kon: 133000 M⁻¹ s⁻¹

B2: mAb14 (antibody, V domains shown)
VH: EVKLEESGGGLVQPGGSMKLSCVASGFTFSKYWMNWVRQSPEKGLEWVAEIRLKSNKYGTHYAESVKGRFTISRDDSKNNVYLQMNNLRPEDTGIYYCTTQLDLYWFFDVWGAGTTVTVSS
VL: DIVMTQSPAILSVTPGDRVSLSCRASQSISDYLHWYQQKSHESPRLLIKYASQSISGIPSRFSGSGSGSNFTLSINSVEPEDVGVYFCQNGHSLPLTFGAGTKLELR
notes: mouse hybridoma antibody
[3]
  blocking percentage: 98%
[4]
  blocking percentage: 6%

B3: Antibody 9-8B (antibody, V domains shown)
VH: QIQLVQSGPELKKPGETVKISCKASGYTFTHYGMNWVKQAPGKGLKWMGWINTYTGELTYADDFKGRFAFSLETSASTAYLQINNLKNEDTATYFCARRAYYRYDYVMDYWGQGTSVTVSS
VL: DIVMTQSQKFMSTSVGDRVSVTCKASHNVGTNVAWYQQKPGQSPKALIYSASYRYSGVPGRFTGSGSGTDFTLTISNVQSEDLAEYFCHQYNNYPYTFGGGTKLEIK
[3]
  blocking percentage: 55%
[4]
  blocking percentage: 19%

B4: hu23.H5L5 (antibody, V domains shown)
VH: QVQLVQSGAEVKKPGASVKVSCKASGYNLKDTFLHWVRQAPGQGLEWMGRIDPANGNIKYDPKFQGRVTITADTSANTAYMELISLRSEDTAVYYCANSPYYYGSGYRIFDVWGQGTTVTVSS
VL: QIVLTQSPATLSLSPGERATLSCSAFSSVNYMHWYQQKPGQAPRLLIYTTSNLASGIPTRFSGSGSGTSYTLTISSLEPEDFAVYYCQQRSTYPFTFGQGTKLEIK
notes: humanized c23
[1]
  EC50: 0.99 nM
[2]
  Kd: 19.5 nM
  koff: 0.0016 s⁻¹
  kon: 82200 M⁻¹ s⁻¹
